Measured values taken from patent US20260184791A1 (KYMAB, published 2026).

Legend:
[1] = target: T1, human ICOS expressed on the surface of cells (human, UniProt Q9Y6W8 21-199); test: flow cytometry, CHO-S cells expressing ICOS, purified IgG1
T1 construct: also called hICOS; Human ICOS CHO
T1 sequence: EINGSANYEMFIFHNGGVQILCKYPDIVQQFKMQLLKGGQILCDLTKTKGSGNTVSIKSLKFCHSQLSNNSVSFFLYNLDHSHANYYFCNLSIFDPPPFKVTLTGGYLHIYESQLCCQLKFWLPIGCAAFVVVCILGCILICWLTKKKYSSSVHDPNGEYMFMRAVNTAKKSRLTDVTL

[2] = target: T2, mouse ICOS expressed on the surface of CHO-S cells (mouse, UniProt Q9WVS0 21-141); test: as above
T2 construct: The construct expressed in CHO-S cells is not specified; also called mICOS; Mouse ICOS CHO
T2 sequence: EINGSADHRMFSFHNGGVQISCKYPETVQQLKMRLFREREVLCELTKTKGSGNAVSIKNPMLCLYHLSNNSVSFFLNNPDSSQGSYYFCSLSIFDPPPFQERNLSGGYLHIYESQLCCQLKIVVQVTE

[3] = target: T1, human ICOS expressed on the surface of …; test: Receptor occupancy by chip cytometry on ICOS+ CD4 memory cells (ICOS+CD3+CD4+FoxP3-CD45RA-) from blood of patients dosed with KY1044 every 3 weeks; samples at C1D1, C1D8, C2D1 and C2D8

B1: CL-61091 (antibody, human IgG1, V domains shown)
VH: QVQLMQSGTEVKKPGASVKVSCKTSGYTFTTYGITWVRQAPGQGLEWMGWISAYSGDTDYAQKFQGRVTVTTDTSTNTAYMELRSLKSDDTAVYYCARSSGWPHHYGMDVWGQGTTVTVSS
VL: DIVMTQSPLSLPVTPGEPASISCRSSQSLLHSNGFNYFDWYLQKPGQSPQLLIFLVSNRASGVPDRFSGSGSGTDFTLKISRVEAEDVGIYYCMQALQTPLTFGGGTKVEIK
fold above the average of geomean of the negative control [1]: > 10 fold
fold above the average of geomean of the negative control [2]: > 10 fold

B2: KY1044 (antibody, human IgG1, kappa, V domains shown)
VH: EVQLVESGGGVVRPGGSLRLSCVASGVTFDDYGMSWVRQAPGKGLEWVSGINWNGGDTDYSDSVKGRFTISRDNAKNSLYLQMNSLRAEDTALYYCARDFYGSGSYYHVPFDYWGQGILVTVSS
VL: EIVLTQSPGTLSLSPGERATLSCRASQSVSRSYLAWYQQKRGQAPRLLIYGASSRATGIPDRFSGDGSGTDFTLSISRLEPEDFAVYYCHQYDMSPFTFGPGTKVDIKR
notes: also called STIM003; SAR445256
binding result [3]: binds

B3: CL-74570 (antibody, human IgG1, V domains shown)
VH: EVQLVESGGGVIRPGGSLRLSCAASGFTFDDYGMSWVRQAPGKGLEWVSGINWIGDNTDYADSVKGRFTISRDNAKNSLYLQMNSLRAEDTALYYCARDYFGSGSYYNVPF
VL: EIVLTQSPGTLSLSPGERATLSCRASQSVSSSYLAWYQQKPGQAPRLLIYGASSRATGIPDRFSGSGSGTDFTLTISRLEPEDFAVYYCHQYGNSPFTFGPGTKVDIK
fold above the average of geomean of the negative control [1]: > 10 fold
fold above the average of geomean of the negative control [2]: > 10 fold
